This is an account of results in paper PMC4108180.

Experiment in all cases: purified protein
Substrate in series [1]: O=C(O)[C@@H](O)[C@H](O)[C@H](O)[C@@H](O)CO
Conditions: 0.5 mM NAD+, 50 mM phosphate pH 7.5, 30 °C.

Substrate in series [2]: O=C(O)[C@@H](O)[C@H](O)[C@@H](O)[C@@H](O)CO
The note with it: 0.5 mM NAD+, 50 mM phosphate pH 7.5, 30 °C.

Substrate in series [3]: C[C@H](O)[C@H]1OC(=O)[C@@H](O)[C@@H]1O
The note with it: 2.5 mM MOPS pH 7.1, 0.2 M NaCl, 1% DMSO, 30 °C.

Substrate in series [4]: O=C1O[C@H]([C@@H](O)CO)[C@@H](O)[C@@H]1O
The note with it: 2.5 mM MOPS pH 7.1, 0.2 M NaCl, 1% DMSO, 30 °C.

Substrate in series [5]: O=C1O[C@@H](CO)[C@H](O)[C@@H](O)[C@@H]1O
Conditions: 2.5 mM MOPS pH 7.1, 0.2 M NaCl, 1% DMSO, 30 °C.

Substrate in series [6]: O=C1O[C@@H](CO)[C@@H](O)[C@@H]1O
The note with it: 2.5 mM MOPS pH 7.1, 0.2 M NaCl, 1% DMSO, 30 °C.

Substrate in series [7]: O=C1O[C@H](CO)[C@@H](O)[C@@H]1O
Conditions: 2.5 mM MOPS pH 7.1, 0.2 M NaCl, 1% DMSO, 30 °C.

Substrate in series [8]: C[C@H]1C[C@@H](O)[C@H](O)C(=O)O1
The note with it: 2.5 mM MOPS pH 7.1, 0.2 M NaCl, 1% DMSO, 30 °C.

Substrate in series [9]: NC(=O)c1ccc[n+]([C@@H]2O[C@H](COP(=O)(O)OP(=O)(O)OC[C@H]3O[C@@H](n4cnc5c(N)ncnc54)[C@H](O)[C@@H]3O)[C@@H](O)[C@H]2O)c1
The note with it: with L-galactose, 50 mM BICINE pH 8.0, 30 °C, varied: cofactor.

B1: Bvu0222 (Phocaeicola vulgatus ATCC 8482) (protein)
chain: MKAIQITAPSEMKVVDIEKPVLEPGEVLVKIKYVGFCGSDLNTFLGRNPMVKLPVIPGHEVGAVIEAVGKDVPDSLKPGMSVTVNPYTNCGKCASCRNGRVNACEHNETLGVQRNGAMCEYIALPWSKIIPAHRIPPRDCALIEPMSVGFHAVSRAQVTDIDIVMVIGCGMIGMGAIVRSALRGATVIAVDLDDEKLELAKRIGAHHTINSMTENVHECLTKITEGLGPDVVIEAVGSPATYVMAVNEVGFTGRVVCIGYAKSEVSFQTKYFVQKELDIRGSRNALPTDFRAVIRYMEQGTCPKNELISKVVKPEAAIQAMKEWAAAPGKVFRILVEFD
As to B1, in the series “purified protein [1]”, the Km came out at 36 ± 3 µM, the catalytic constant (kcat) came out at 0.6 ± 0.1 s⁻¹ and the specificity constant (kcat/Km) amounted to 17000 ± 1000 M⁻¹ s⁻¹. Besides, in “purified protein [2]”, the Michaelis-Menten constant (Km) was found to be 510 ± 70 µM, the catalytic constant (kcat) was 0.2 ± 0.1 s⁻¹ and the catalytic efficiency (kcat/Km) amounted to 390 ± 60 M⁻¹ s⁻¹.

B2: Bvu0220 (Phocaeicola vulgatus ATCC 8482) (protein)
chain: MMDFNIIDAHSHLWLRQDTEVNGLPIRTLTNGRSLFMGEERQMVPPFMIDGRNSAEVFLSNMDYAQVSAAVVTQEFIDGIQNEYLAKVSHKYPDRFFVCGMCEFRKPGYLQQAKELISSGFKAIKIPAHRLFLKEGRVMLNSDEMMEMFHYMQEKDIILSIDLADGDTQVQEMKEIIQEYPQLRIAIGHFGMVTTPHWQEQIKLARHKNVMIESGGITWLFNSEFYPFHGAVKAIKEAADLVGMDKLMWGSDYPRTITAITYKMSYDFILKTTEMTQEEKALFLGKNAERFYGFKNLISLPYIKNMSE
As to B2, the Km was found to be 1320 ± 210 µM in “purified protein [3]”; 1950 ± 310 µM in the series “purified protein [4]”; 500 ± 40 µM in “purified protein [5]”; 5500 ± 550 µM in “purified protein [6]”; 1700 ± 140 µM in the series “purified protein [7]”; 32 ± 4 µM in “purified protein [8]”. Further, the kcat in the series “purified protein [3]” turned out to be 23 ± 2 s⁻¹; in the series “purified protein [4]” it was 34 ± 3 s⁻¹; in “purified protein [5]” it was 38 ± 1 s⁻¹; in the series “purified protein [6]”, 5.3 ± 0.4 s⁻¹; in “purified protein [7]”, 1 ± 0.1 s⁻¹; in “purified protein [8]”, 23 ± 1 s⁻¹. Further, the kcat/Km in the series “purified protein [3]” is 18000 ± 2000 M⁻¹ s⁻¹; in the series “purified protein [4]” it was 18000 ± 2000 M⁻¹ s⁻¹; in “purified protein [5]”, 80000 ± 5000 M⁻¹ s⁻¹; in the series “purified protein [6]” it was 930 ± 40 M⁻¹ s⁻¹; in “purified protein [7]”, 500 ± 30 M⁻¹ s⁻¹; in “purified protein [8]” it was 720000 ± 80000 M⁻¹ s⁻¹.

B3: Bvu0219 (Phocaeicola vulgatus ATCC 8482) (protein)
chain: MNYNEIGKTGMRVSNLSFGASSLGGVFHDIREAEGIKAVYTAVENGMNFIDVSPYYGHYKAETVLGKALKEIPRDKYYLSTKVGRYGKDGVNTWDYSGKRATESVYESLDRLHIEYIDLINVHDVEFSDMNQVVNETLPALVELKKKGIVGHVGITDLQLENLKWIIDHSEPGTVESVLNFCHYCLNDEKLTDYLDYFESKNIGIINASPLSMGLLSQRGVPAWHPAPQSLVEACRKAVQHCLSKNYPIEKLAIQYSVSNPRIATTLFSSANPDNVLKNITYAEEPIDWNLVKEVQEIIGKQMRISWANS
In the case of B3, in the series “purified protein [9]”, the Km is 3000 ± 200 µM, the kcat stood at 25 ± 1 s⁻¹ and the kcat/Km amounted to 9000 ± 100 M⁻¹ s⁻¹.

A word on the Km: it is the substrate concentration at which the rate is half of its maximum. As usually defined, the kcat is the maximal rate divided by the concentration of active sites. Usually kcat/Km stands for the second-order rate constant that governs catalysis at low substrate concentration.
